Values quoted from earlier work, collected in paper PMC6783463.

Target: PTH (15-34) 15-34 (Homo sapiens) (UniProt P01270)
Conditions: cited from earlier work

Sequence of UniProt P01270 (P01270 15-34): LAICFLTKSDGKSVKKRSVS

PTH1R ECD (from UniProt Q03431)
Kd: 1000 nM
